molecular target: HLA-A*02:01; assay: IEDB peptide-MHC binding, purified MHC/competitive/radioactivity; filed as Kd, often an IC50 or EC50 that approximates it; ≥ and ≤ were set here for values at or beyond the usual limits of such assays; conditions: source organism: Mycobacterium tuberculosis

**Q.** With AIAWGAWGEV as the sequence, how does the Kd read?
**A.** 0.312 µM

**Q.** For AIYHPQQFV, which Kd is on record?
**A.** 0.313 µM

**Q.** How did the Kd turn out when ALLSDWLPA was run?
**A.** 0.0943 µM

**Q.** For ALVLLMLPVV, which Kd is on record?
**A.** 0.0068 µM

**Q.** For ALYLLDGLRA, which Kd is on record?
**A.** 0.263 µM

**Q.** For AMALLRLPLV, which Kd is on record?
**A.** 0.0051 µM

**Q.** For AMKADIQHV, which Kd is on record?
**A.** 0.167 µM

**Q.** How did the Kd turn out when AMLQDMAIL was run?
**A.** 0.098 µM

**Q.** How did the Kd turn out when ATYDKGILTV was run?
**A.** 0.156 µM

**Q.** Which Kd does the source give for AVHDTLFYCV here?
**A.** 0.104 µM

**Q.** With FLLADERVRV as the sequence, how does the Kd read?
**A.** 0.116 µM

**Q.** With FLLPDAQSI as the sequence, how does the Kd read?
**A.** 0.385 µM

**Q.** For FLMPVEDVFI, which Kd is on record?
**A.** 0.0033 µM

**Q.** For FLTCDANLAV, which Kd is on record?
**A.** 0.104 µM

**Q.** How did the Kd turn out when FMSLAGFVRM was run?
**A.** 0.116 µM

**Q.** How did the Kd turn out when FVVALIPLV was run?
**A.** 0.0076 µM

**Q.** With GIVSGILLSI as the sequence, how does the Kd read?
**A.** 0.151 µM

**Q.** With GLAGTVLRFV as the sequence, how does the Kd read?
**A.** 0.109 µM

**Q.** GLFLTTEAVV was tested. Which Kd did it give?
**A.** 0.238 µM

**Q.** For GLGGLGLFFA, which Kd is on record?
**A.** 0.0892 µM

**Q.** Which Kd does the source give for GLMTAVYLV here?
**A.** 0.0089 µM

**Q.** Which Kd does the source give for GLVDFVKHI here?
**A.** 0.217 µM

**Q.** For GLYGAQYDV, which Kd is on record?
**A.** 0.25 µM

**Q.** GLYRQWALA was tested. Which Kd did it give?
**A.** 0.185 µM

**Q.** How did the Kd turn out when GLYYLTTEV was run?
**A.** 0.0208 µM

**Q.** How did the Kd turn out when ILLSIARVV was run?
**A.** 0.455 µM

**Q.** How did the Kd turn out when ILSSLGLPV was run?
**A.** 0.05 µM

**Q.** KIFMLVTAVV was tested. Which Kd did it give?
**A.** 0.417 µM

**Q.** With KLTADGVLTA as the sequence, how does the Kd read?
**A.** 0.2 µM

**Q.** With LALVLLMLPV as the sequence, how does the Kd read?
**A.** 0.333 µM

**Q.** For LLAAGVADPV, which Kd is on record?
**A.** 0.217 µM

**Q.** With LLACAVIHA as the sequence, how does the Kd read?
**A.** 0.25 µM

**Q.** LLATVFKLTA was tested. Which Kd did it give?
**A.** 0.25 µM

**Q.** For LLCCSGVATA, which Kd is on record?
**A.** 0.151 µM

**Q.** With LLFLGVVFL as the sequence, how does the Kd read?
**A.** 0.05 µM

**Q.** For LLFRFMRPL, which Kd is on record?
**A.** 0.0357 µM

**Q.** LLFRFMRPLI was tested. Which Kd did it give?
**A.** 0.0833 µM

**Q.** With LLGSFELTGI as the sequence, how does the Kd read?
**A.** 0.026 µM

**Q.** LLLDVTPLSL was tested. Which Kd did it give?
**A.** 0.017 µM

**Q.** With LLLETSWEAI as the sequence, how does the Kd read?
**A.** 0.106 µM

**Q.** For LLPLGYPFV, which Kd is on record?
**A.** 0.333 µM

**Q.** With LLWQDPVPA as the sequence, how does the Kd read?
**A.** 0.0454 µM

**Q.** How did the Kd turn out when LMIGTAAAVV was run?
**A.** 0.054 µM

**Q.** For LMLPGMNGI, which Kd is on record?
**A.** 0.238 µM

**Q.** With MALLRLPLV as the sequence, how does the Kd read?
**A.** 0.0526 µM

**Q.** MLASTLTDA was tested. Which Kd did it give?
**A.** 0.25 µM

**Q.** For MLATDLSLRV, which Kd is on record?
**A.** 0.109 µM

**Q.** How did the Kd turn out when MLGNAPSVV was run?
**A.** 0.227 µM

**Q.** Which Kd does the source give for MLQDMAILT here?
**A.** 0.167 µM

**Q.** Which Kd does the source give for MTYAAPLFV here?
**A.** 0.0138 µM

**Q.** With RIANGMGATV as the sequence, how does the Kd read?
**A.** 0.385 µM

**Q.** Which Kd does the source give for RLLDDTPEV here?
**A.** 0.0961 µM

**Q.** RLMIGTAAA was tested. Which Kd did it give?
**A.** 0.227 µM

**Q.** With RLQPQVGWEV as the sequence, how does the Kd read?
**A.** 0.178 µM

**Q.** For RMPAVTDLV, which Kd is on record?
**A.** 0.125 µM

**Q.** With RMSRVTTFTV as the sequence, how does the Kd read?
**A.** 0.0755 µM

**Q.** For SLAGFVRML, which Kd is on record?
**A.** 0.111 µM

**Q.** For SLLEIGEGV, which Kd is on record?
**A.** 0.098 µM

**Q.** For SLLEIGEGVV, which Kd is on record?
**A.** 0.05 µM

**Q.** For SLYFGGICV, which Kd is on record?
**A.** 0.0106 µM

**Q.** For SLYFGGICVI, which Kd is on record?
**A.** 0.167 µM

**Q.** TVLRFVPPL was tested. Which Kd did it give?
**A.** 0.0769 µM

**Q.** VLLEDGGVEV was tested. Which Kd did it give?
**A.** 0.333 µM

**Q.** How did the Kd turn out when VLLLDVTPL was run?
**A.** 0.05 µM

**Q.** For WLLIDTSNA, which Kd is on record?
**A.** 0.357 µM

**Q.** Which Kd does the source give for WMAETTLGRV here?
**A.** 0.294 µM

**Q.** YLLALRYLA was tested. Which Kd did it give?
**A.** 0.01 µM

**Q.** Which Kd does the source give for YLSEGDMAA here?
**A.** 0.294 µM

**Q.** For YLSQIAVLL, which Kd is on record?
**A.** 0.0121 µM

**Q.** With YLYVHSPAL as the sequence, how does the Kd read?
**A.** 0.0054 µM

**Q.** With YTYKWETFL as the sequence, how does the Kd read?
**A.** 0.029 µM

Source: the Immune Epitope Database (IEDB)
